Assay results reported in the supplement of paper PMC7877785.
± gives the uncertainty stated by the source.

Experiment: self-splicing fitness, log relative to wild type (ln ratio); higher = more splicing; Tetrahymena group I intron in knt gene, E. coli kanamycin selection, DiMSum; sequences stand for … in CUCUCU…GGAGGGAAAAGUUAUCAGGCAUGCACCUGGUAGCUAGUCUUUAAACCAAUAGAUUGCAUCGGUUUAAAAGGCAAGACCGUCAAAUUGCGGGAAAGGGGUCAACAGCCGUUCAGUACCAAGUCUCAGGGGAAACUUUGAGAUGGCCUUGCAAAGGGUAUGGUAAUAAGCUGACGGACAUGGUCCUAACCACGCAGCCAAGUCCUAAGUCAACAGAUCUUCUGUUGAUAUGGAUGCAGUUCACAGACUAAAUGUCGGUCGGGGAAGAUGUAUUCUUCUCAUAAGAUAUAGUCGGACCUCUCCUUAAUGGGAGCUAGCGGAUGAAGUGAUGCAACACUGGAGCCGCUGGGAACUAAUUUGUAUGCGAAAGUAUAUUGAUUAGUUUUGGAGUACUCGUGGUCG
In short: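 Fitness was computed with DiMSum as the error-weighted combination of replicate fold changes, kanamycin versus none, each normalised to wild type. The library randomised all eight intron nucleotides of the P1ex region, with the intron placed in the knt kanamycin-resistance gene on pET-22b(+) in E. coli BL21(DE3). Six replicate transformations were grown overnight at 37°C or 30°C on LB agar with or without 25 μg/mL kanamycin, plus 100 μg/mL carbenicillin, 50 μM IPTG and 0.2% rhamnose. Pooled colonies were amplicon-sequenced on an Illumina HiSeq 2500.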

Sequence	self-splicing fitness (ln) (30 °C)	self-splicing fitness (ln) (37 °C)
GAUAAGCAAUAUUACGUACU	-0.466 ± 0.089	-0.373 ± 0.12
AAUCAGCAAUAUUACGGUUA	-0.439 ± 0.08	-0.408 ± 0.066
CUGAAGCAAUAUUACGGCCU	-4.04 ± 0.26	-2.43 ± 0.33
CCCGAGCAAUAUUACGUAUU	-3.8 ± 0.17	-3.48 ± 0.24
UGUCAGCAAUAUUACGUUGC		-1.75 ± 0.46
GACUAGCAAUAUUACGAGGU	-2.34 ± 0.2	-1.64 ± 0.2
CGUAAGCAAUAUUACGUUGC	-2.73 ± 0.22	-1.81 ± 0.29
UUGGAGCAAUAUUACGACGA	-0.765 ± 0.14	0.309 ± 0.21
GGGGAGCAAUAUUACGCACU	-3.29 ± 0.36	
ACGCAGCAAUAUUACGCUCG	-2.56 ± 0.12	-1.67 ± 0.16
CGGUAGCAAUAUUACGUGCG	-1.41 ± 0.12	-0.87 ± 0.12
AAGUAGCAAUAUUACGUUGC	-3.66 ± 0.14	-3.19 ± 0.21
ACUUAGCAAUAUUACGACGA	-0.777 ± 0.089	-0.322 ± 0.088
AGAUAGCAAUAUUACGAACC	0.553 ± 0.29	-0.637 ± 0.27
UUCCAGCAAUAUUACGUAAA	-0.607 ± 0.086	0.616 ± 0.12
AAUGAGCAAUAUUACGGUUA	-3.02 ± 0.22	-1.86 ± 0.15
UCACAGCAAUAUUACGUUUC	-3.8 ± 0.19	-3.02 ± 0.21
ACUAAGCAAUAUUACGCUCA	-0.894 ± 0.12	-0.989 ± 0.14
UCUGAGCAAUAUUACGUGGU	-2.58 ± 0.13	-2.21 ± 0.15

Sequence	self-splicing fitness (ln) (30 °C)	self-splicing fitness (ln) (37 °C)
UGUCAGCAAUAUUACGUGGA	-1.92 ± 0.1	-0.49 ± 0.11
UCCCAGCAAUAUUACGCUUU	-2.7 ± 0.16	-2 ± 0.15
UGGUAGCAAUAUUACGCUAU	-4.7 ± 0.42	-2.87 ± 0.23
CGCCAGCAAUAUUACGAUGC	-3.51 ± 0.38	-1.75 ± 0.2
AGCCAGCAAUAUUACGUCAG	-3.58 ± 0.17	-2.77 ± 0.23
GGGGAGCAAUAUUACGGCUC		-0.173 ± 0.34
AACGAGCAAUAUUACGGAAU	-2.84 ± 0.24	-1.81 ± 0.22
GCACAGCAAUAUUACGUUGG	-1.6 ± 0.058	-0.74 ± 0.071
CGCAAGCAAUAUUACGAGCC	-1.07 ± 0.095	-0.349 ± 0.12
AGUUAGCAAUAUUACGAGAG	-3.75 ± 0.29	-2.24 ± 0.22
AACUAGCAAUAUUACGAUUG	-2.97 ± 0.12	-1.23 ± 0.12
CUUAAGCAAUAUUACGCAGC	-3.43 ± 0.25	-1.93 ± 0.37
AUUCAGCAAUAUUACGUUGC	-2.72 ± 0.23	-2.52 ± 0.3
GUAAAGCAAUAUUACGUUGG	-1.84 ± 0.12	-1.56 ± 0.13
UAUUAGCAAUAUUACGUUCA	-1.04 ± 0.1	-0.21 ± 0.14
GACUAGCAAUAUUACGUCGA	-1.96 ± 0.11	-0.484 ± 0.1
UGCUAGCAAUAUUACGGCUC	-1.4 ± 0.2	-1.33 ± 0.23
GCACAGCAAUAUUACGCUCG	-0.537 ± 0.066	0.118 ± 0.095
GAUCAGCAAUAUUACGUCUC	-0.796 ± 0.1	0.0417 ± 0.13
